Test: microtiter isotope tracer [3H]-cocaine hydrolysis assay of immobilized butyrylcholinesterase variants
Format: biochemical
Details: for cocaine hydrolysis activity compared to butyrylcholinesterase (in words): compared to human butyrylcholinesterase; for increase in cocaine hydrolysis activity relative to butyrylcholinesterase: compared to human butyrylcholinesterase SEQ ID NO: 44, approximate values; for Relative Activity of butyrylcholinesterase variants (WT = 1) with enhanced cocaine hydrolase activity: relative to wild-type = 1, catalytic efficiency (Vmax/Km), [3H]-cocaine microtiter assay
Source text: At the conclusion of the isotope tracer assay, an aliquot of the reaction mix is acidified in order to take advantage of the solubility difference between the product and the substrate at pH 3.0. […] Prospect, Ill.) while [3H]-cocaine is not.
The supernatants isolated from each of the butyrylcholinesterase variant library clones contains variable butyrylcholinesterase enzyme concentrations.
At least three approaches are used to either increase the assay sensitivity or the assay signal.
Km values for (−)-cocaine are determined at 37° C. Vmax and Km values are calculated using Sigma Plot (Jandel Scientific, San Rafael, Calif.). The number of active sites of butyrylcholinesterase is determined by the method of residual activity using echothiopate iodide or diisopropyl fluorophosphates as titrants, as described previously by Masson et al., Biochemistry 36: 2266-2277 (1997). […] Purified human butyrylcholinesterase is used as the standard for the ELISA quantitation assay. The catalytic rate constant, kcat, is calculated by dividing Vmax by the concentration of active sites.

Molecule | cocaine hydrolysis activity compared to butyrylcholinesterase (in words) | increase in cocaine hydrolysis activity relative to butyrylcholinesterase | Relative Activity of butyrylcholinesterase variants (WT = 1) with enhanced cocaine hydrolase activity
F227G (protein, Butyrylcholinesterase variant) EDDIIIATKNGKVRGMNLTVFGGTVTAFLGIPYAQPPLGRLRFKKPQSLTKWSDIWNATKYANSCCQNIDQSFPGFHGSEMWNPNTDLSEDCLYLNVWIPAPKPKNATVLIWIYGGGFQTGTSSLHVYDGKFLARVERVIVVSMNYRVGALGFLALPGNPEAPGNMGLFDQQLALQWVQKNIAAFGGNPKSVTLFGESAGAASVSLHLLSPGSHSLFTRAILQSGSGNAPWAVTSLYEARNRTLNLAKLTGCSRENETEIIKCLRNKDPQEILLNEAFVVPYGTPLSVNFGPTVDGDFLTDMPDILLELGQFKKTQILVGVNKDEGTAFLVYGAPGFSKDNNSIITRKEFQEGLKIFFPGVSEFGKESILFHYTDWVDDQRPENYREALGDVVGDYNFICPALEFTKKFSEWGNNAFFYYFEHRSSKLPWPEWMGVMHGYEIEFVFGLPLERRDNYTKAEEILSRSIVKRWANFAKYGNPNETQNNSTSWPVFKSTEQKYLTLNTESTRIMTKLRAQQCRFWTSFFPKVLEMTGNIDEAEWEWKAGFHRWNNYMMDWKNQFNDYTSKKESCVGL | enhanced cocaine hydrolase activity | four | 4.0
F227P (protein, Butyrylcholinesterase variant) EDDIIIATKNGKVRGMNLTVFGGTVTAFLGIPYAQPPLGRLRFKKPQSLTKWSDIWNATKYANSCCQNIDQSFPGFHGSEMWNPNTDLSEDCLYLNVWIPAPKPKNATVLIWIYGGGFQTGTSSLHVYDGKFLARVERVIVVSMNYRVGALGFLALPGNPEAPGNMGLFDQQLALQWVQKNIAAFGGNPKSVTLFGESAGAASVSLHLLSPGSHSLFTRAILQSGSPNAPWAVTSLYEARNRTLNLAKLTGCSRENETEIIKCLRNKDPQEILLNEAFVVPYGTPLSVNFGPTVDGDFLTDMPDILLELGQFKKTQILVGVNKDEGTAFLVYGAPGFSKDNNSIITRKEFQEGLKIFFPGVSEFGKESILFHYTDWVDDQRPENYREALGDVVGDYNFICPALEFTKKFSEWGNNAFFYYFEHRSSKLPWPEWMGVMHGYEIEFVFGLPLERRDNYTKAEEILSRSIVKRWANFAKYGNPNETQNNSTSWPVFKSTEQKYLTLNTESTRIMTKLRAQQCRFWTSFFPKVLEMTGNIDEAEWEWKAGFHRWNNYMMDWKNQFNDYTSKKESCVGL | enhanced cocaine hydrolase activity | three | 2.9
A328W/Y332M (protein, Butyrylcholinesterase variant) EDDIIIATKNGKVRGMNLTVFGGTVTAFLGIPYAQPPLGRLRFKKPQSLTKWSDIWNATKYANSCCQNIDQSFPGFHGSEMWNPNTDLSEDCLYLNVWIPAPKPKNATVLIWIYGGGFQTGTSSLHVYDGKFLARVERVIVVSMNYRVGALGFLALPGNPEAPGNMGLFDQQLALQWVQKNIAAFGGNPKSVTLFGESAGAASVSLHLLSPGSHSLFTRAILQSGSFNAPWAVTSLYEARNRTLNLAKLTGCSRENETEIIKCLRNKDPQEILLNEAFVVPYGTPLSVNFGPTVDGDFLTDMPDILLELGQFKKTQILVGVNKDEGTWFLVMGAPGFSKDNNSIITRKEFQEGLKIFFPGVSEFGKESILFHYTDWVDDQRPENYREALGDVVGDYNFICPALEFTKKFSEWGNNAFFYYFEHRSSKLPWPEWMGVMHGYEIEFVFGLPLERRDNYTKAEEILSRSIVKRWANFAKYGNPNETQNNSTSWPVFKSTEQKYLTLNTESTRIMTKLRAQQCRFWTSFFPKVLEMTGNIDEAEWEWKAGFHRWNNYMMDWKNQFNDYTSKKESCVGL | enhanced cocaine hydrolase activity | twenty-four | 24
F227C (protein, Butyrylcholinesterase variant) EDDIIIATKNGKVRGMNLTVFGGTVTAFLGIPYAQPPLGRLRFKKPQSLTKWSDIWNATKYANSCCQNIDQSFPGFHGSEMWNPNTDLSEDCLYLNVWIPAPKPKNATVLIWIYGGGFQTGTSSLHVYDGKFLARVERVIVVSMNYRVGALGFLALPGNPEAPGNMGLFDQQLALQWVQKNIAAFGGNPKSVTLFGESAGAASVSLHLLSPGSHSLFTRAILQSGSCNAPWAVTSLYEARNRTLNLAKLTGCSRENETEIIKCLRNKDPQEILLNEAFVVPYGTPLSVNFGPTVDGDFLTDMPDILLELGQFKKTQILVGVNKDEGTAFLVYGAPGFSKDNNSIITRKEFQEGLKIFFPGVSEFGKESILFHYTDWVDDQRPENYREALGDVVGDYNFICPALEFTKKFSEWGNNAFFYYFEHRSSKLPWPEWMGVMHGYEIEFVFGLPLERRDNYTKAEEILSRSIVKRWANFAKYGNPNETQNNSTSWPVFKSTEQKYLTLNTESTRIMTKLRAQQCRFWTSFFPKVLEMTGNIDEAEWEWKAGFHRWNNYMMDWKNQFNDYTSKKESCVGL | enhanced cocaine hydrolase activity | two | 1.9
F227S (protein, Butyrylcholinesterase variant) EDDIIIATKNGKVRGMNLTVFGGTVTAFLGIPYAQPPLGRLRFKKPQSLTKWSDIWNATKYANSCCQNIDQSFPGFHGSEMWNPNTDLSEDCLYLNVWIPAPKPKNATVLIWIYGGGFQTGTSSLHVYDGKFLARVERVIVVSMNYRVGALGFLALPGNPEAPGNMGLFDQQLALQWVQKNIAAFGGNPKSVTLFGESAGAASVSLHLLSPGSHSLFTRAILQSGSSNAPWAVTSLYEARNRTLNLAKLTGCSRENETEIIKCLRNKDPQEILLNEAFVVPYGTPLSVNFGPTVDGDFLTDMPDILLELGQFKKTQILVGVNKDEGTAFLVYGAPGFSKDNNSIITRKEFQEGLKIFFPGVSEFGKESILFHYTDWVDDQRPENYREALGDVVGDYNFICPALEFTKKFSEWGNNAFFYYFEHRSSKLPWPEWMGVMHGYEIEFVFGLPLERRDNYTKAEEILSRSIVKRWANFAKYGNPNETQNNSTSWPVFKSTEQKYLTLNTESTRIMTKLRAQQCRFWTSFFPKVLEMTGNIDEAEWEWKAGFHRWNNYMMDWKNQFNDYTSKKESCVGL | enhanced cocaine hydrolase activity | two | 2.3
F227T (protein, Butyrylcholinesterase variant) EDDIIIATKNGKVRGMNLTVFGGTVTAFLGIPYAQPPLGRLRFKKPQSLTKWSDIWNATKYANSCCQNIDQSFPGFHGSEMWNPNTDLSEDCLYLNVWIPAPKPKNATVLIWIYGGGFQTGTSSLHVYDGKFLARVERVIVVSMNYRVGALGFLALPGNPEAPGNMGLFDQQLALQWVQKNIAAFGGNPKSVTLFGESAGAASVSLHLLSPGSHSLFTRAILQSGSTNAPWAVTSLYEARNRTLNLAKLTGCSRENETEIIKCLRNKDPQEILLNEAFVVPYGTPLSVNFGPTVDGDFLTDMPDILLELGQFKKTQILVGVNKDEGTAFLVYGAPGFSKDNNSIITRKEFQEGLKIFFPGVSEFGKESILFHYTDWVDDQRPENYREALGDVVGDYNFICPALEFTKKFSEWGNNAFFYYFEHRSSKLPWPEWMGVMHGYEIEFVFGLPLERRDNYTKAEEILSRSIVKRWANFAKYGNPNETQNNSTSWPVFKSTEQKYLTLNTESTRIMTKLRAQQCRFWTSFFPKVLEMTGNIDEAEWEWKAGFHRWNNYMMDWKNQFNDYTSKKESCVGL | enhanced cocaine hydrolase activity | two | 1.9
F227M (protein, Butyrylcholinesterase variant) EDDIIIATKNGKVRGMNLTVFGGTVTAFLGIPYAQPPLGRLRFKKPQSLTKWSDIWNATKYANSCCQNIDQSFPGFHGSEMWNPNTDLSEDCLYLNVWIPAPKPKNATVLIWIYGGGFQTGTSSLHVYDGKFLARVERVIVVSMNYRVGALGFLALPGNPEAPGNMGLFDQQLALQWVQKNIAAFGGNPKSVTLFGESAGAASVSLHLLSPGSHSLFTRAILQSGSMNAPWAVTSLYEARNRTLNLAKLTGCSRENETEIIKCLRNKDPQEILLNEAFVVPYGTPLSVNFGPTVDGDFLTDMPDILLELGQFKKTQILVGVNKDEGTAFLVYGAPGFSKDNNSIITRKEFQEGLKIFFPGVSEFGKESILFHYTDWVDDQRPENYREALGDVVGDYNFICPALEFTKKFSEWGNNAFFYYFEHRSSKLPWPEWMGVMHGYEIEFVFGLPLERRDNYTKAEEILSRSIVKRWANFAKYGNPNETQNNSTSWPVFKSTEQKYLTLNTESTRIMTKLRAQQCRFWTSFFPKVLEMTGNIDEAEWEWKAGFHRWNNYMMDWKNQFNDYTSKKESCVGL | enhanced cocaine hydrolase activity | one-and-a-half | 1.4
